# Earlier results in paper PMC3786701.
# Biological target: SNARE complex (Rattus norvegicus) (UniProt P32851)
# UniProt P32851, sequence (P32851 whole entry, chain 1 of 3): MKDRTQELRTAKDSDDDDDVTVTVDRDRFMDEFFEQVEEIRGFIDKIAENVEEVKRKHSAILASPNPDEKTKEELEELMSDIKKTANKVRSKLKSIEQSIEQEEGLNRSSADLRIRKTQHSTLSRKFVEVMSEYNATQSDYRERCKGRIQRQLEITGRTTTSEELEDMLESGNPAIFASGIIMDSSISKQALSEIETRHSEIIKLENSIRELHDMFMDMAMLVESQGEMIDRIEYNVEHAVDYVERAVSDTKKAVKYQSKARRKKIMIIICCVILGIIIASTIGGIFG
# UniProt P32851, sequence (B2RAU4 whole entry, chain 2 of 3, further chain): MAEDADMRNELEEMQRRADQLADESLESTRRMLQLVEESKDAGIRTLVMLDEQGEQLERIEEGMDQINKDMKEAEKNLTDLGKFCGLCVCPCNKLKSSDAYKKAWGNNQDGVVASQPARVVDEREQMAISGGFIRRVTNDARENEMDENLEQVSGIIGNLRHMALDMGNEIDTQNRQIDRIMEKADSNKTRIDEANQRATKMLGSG
# UniProt P32851, sequence (P63044 2-116, chain 3 of 3, further chain): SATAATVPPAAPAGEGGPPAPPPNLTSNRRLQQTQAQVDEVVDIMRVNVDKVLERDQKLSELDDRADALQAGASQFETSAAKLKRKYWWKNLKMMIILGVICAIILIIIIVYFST
substance,measurement,value
synaptotagmin-1 C2AB (from UniProt P21707),Kd,1 µM
